From patent US20190350938A1 (BROAD INSTITUTE, published 2019) come the findings set out here.

T1: P2D SLC16A11^REF-V5 (human, UniProt Q8NCK7 1-447)
T1 construct: bait of the proteomics study; also called P2D WT SLC16A11; WT SLC16A11
T1 sequence: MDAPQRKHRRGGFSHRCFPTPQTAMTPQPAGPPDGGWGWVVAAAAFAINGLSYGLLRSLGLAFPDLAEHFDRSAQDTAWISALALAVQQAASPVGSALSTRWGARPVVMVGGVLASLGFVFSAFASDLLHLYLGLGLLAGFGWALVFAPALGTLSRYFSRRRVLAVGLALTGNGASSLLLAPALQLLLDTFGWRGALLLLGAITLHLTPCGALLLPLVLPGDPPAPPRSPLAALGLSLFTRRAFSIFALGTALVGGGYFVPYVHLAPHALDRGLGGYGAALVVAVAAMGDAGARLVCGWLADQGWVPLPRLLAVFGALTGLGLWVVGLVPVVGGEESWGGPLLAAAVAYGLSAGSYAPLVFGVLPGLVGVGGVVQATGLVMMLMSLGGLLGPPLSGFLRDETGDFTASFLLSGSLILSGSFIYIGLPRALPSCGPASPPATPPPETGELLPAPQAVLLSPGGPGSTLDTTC

B1: Basigin (other, human, UniProt P35613-2 22-269, looked up)
chain: AAGTVFTTVEDLGSKILLTCSLNDSATEVTGHRWLKGGVVLKEDALPGQKTEFKVDSDDQWGEYSCVFLPEPMGTANIQLHGPPRVKAVKSSEHINEGETAMLVCKSESVPPVTDWAWYKITDSEDKALMNGSESRFFVSSSQGRSELHIENLNMEADPGQYRCNGTSSKGSDQAIITLRVRSHLAALWPFLGIVAEVLVLVTIIFIYEKRRKPEDVLDDDDAGSAPLKSSGQHQNDKGKNVRQRNSS
modifications: glycosylated (runs as multiple bands)
notes: Endogenous protein co-precipitated from HEK293T lysate; also called BSG; endogenous BSG
B2: Embigin (protein, human, UniProt Q6PCB8 33-327, looked up)
chain: DGSAPDSPFTSPPLREEIMANNFSLESHNISLTEHSSMPVEKNITLERPSNVNLTCQFTTSGDLNAVNVTWKKDGEQLENNYLVSATGSTLYTQYRFTIINSKQMGSYSCFFREEKEQRGTFNFKVPELHGKNKPLISYVGDSTVLTCKCQNCFPLNWTWYSSNGSVKVPVGVQMNKYVINGTYANETKLKITQLLEEDGESYWCRALFQLGESEEHIELVVLSYLVPLKPFLVIVAEVILLVATILLCEKYTQKKKKHSDEGKEFEQIEQLKSDDSNGIENNVPRHRKNESLGQ
B3: SLC16A11^T2D-V5 (other, not shown: small tags and cut ends)
chain: MPAPQRKHRRGGFSHRCFPTPQTAMTPQPAGPPDGGWGWVVAAAAFAINGLSYGLLRSLGLAFPDLAEHFDRSAQDTAWISALALAVQQAASPVGSALSTRWGARPVVMVGGILASLGFVFSAFASGLLHLYLGLGLLAGFGWALVFAPALGTLSRYFSRRRVLAVGLALTGNGASSLLLAPALQLLLDTFGWRGALLLLGAITLHLTPCGALLLPLVLPGDPPAPPRSPLAALGLSLFTRRAFSIFALGTALVGGGYFVPYVHLAPHALDRGLGGYGAALVVAVAAMGDAGARLVCGWLADQGWVPLPRLLAVFGALTGLGLWVVGLVPVVGGEESWGSPLLAAAVAYGLSAGSYAPLVFGVLPGLVGVGGVVQATGLVMMLMSLGGLLGPPLSGFLRDETGDFTASFLLSGSLILSGSFIYIGLPRALPSCGPASPPATPTPETGELLPAPQAVLLSPGGPGSTLDTTCLPTFLYKVVGKPIPNPLLGLDST

In the first experiment the target is T1, P2D SLC16A11^REF-V5. The experiment can be described thus: anti-V5 IP of P2D SLC16A11REF-V5 from HEK293T lysate, iTRAQ quantitative MS; enrichment vs empty vector control IP.
In the case of “7-dehydrocholesterol reductase (from UniProt Q9UBM7 1-475) (enzyme)”, the B.A. logFC turned out to be 1.69 logFC and the BA log fold change (log fold change) came to 1.69.
In the case of ADCK4 (from UniProt Q96D53 1-544), the BA log fold change (log fold change) is 1.11.
On the same count and under the same terms, under “AGPAT6 (from UniProt Q86UL3 38-456) (enzyme)” stands 1.16.
The same measure, in the same setting: under ATP1B3 (from UniProt P54709 1-279) stands 1.18; under AUP1 (from UniProt Q9Y679 1-410), 1.1.
For BAG2 (from UniProt O95816 2-211), the B.A. logFC was found to be 1.26 logFC and the BA log fold change (log fold change) turned out to be 1.26.
In the case of BAG6 (from UniProt P46379 1-1162), the BA log fold change (log fold change) was found to be 1.08.
Same read-out and setting: under BRAT1 (from UniProt Q6PJG6 1-821) stands 1.04.
Take CANX (from UniProt P27824 56-627): the B.A. logFC is 1.38 logFC and the BA log fold change (log fold change) was 1.38.
The corresponding values for DDOST (from UniProt P39656 43-456) are 1.65 logFC and 1.65.
Take DNAJB4 (from UniProt Q9UDY4 2-337): the BA log fold change (log fold change) amounted to 1.08.
For the molecule DNAJC3 (from UniProt Q13217 32-504), the BA log fold change (log fold change) amounted to 1.22.
In the case of DNAJC7 (from UniProt Q99615 2-494), the BA log fold change (log fold change) was 1.05.
In the case of “E3 ubiquitin-protein ligase RNF5 (from UniProt Q99942 2-180) (enzyme)”, the B.A. logFC worked out at 1.42 logFC and the BA log fold change (log fold change) is 1.42.
Turning to EMC3 (from UniProt Q9P0I2 2-261), the B.A. logFC came out at 1.65 logFC and the BA log fold change (log fold change) was 1.65.
The corresponding values for “FAS-associated factor 2 (from UniProt Q96CS3 2-445)” are 1.23 logFC and 1.23.
As for GCN1L1 (from UniProt Q92616 2-2671), the BA log fold change (log fold change) amounted to 1.01.
On the same count and under the same terms, under HEATR2 (from UniProt Q86Y56 2-855) stands 1.03.
For the molecule “HSD17B12 (from UniProt Q53GQ0 1-312) (enzyme)”, the B.A. logFC worked out at 1.26 logFC and the BA log fold change (log fold change) is 1.26.
As to KIAA0368 (from UniProt J3KN16 1-2017), the BA log fold change (log fold change) came to 1.16.
Take “LPCAT1 (from UniProt Q8NF37 1-534) (enzyme)”: the BA log fold change (log fold change) was 1.16.
Turning to MAGED1 (from UniProt Q9Y5V3 1-834), the BA log fold change (log fold change) is 1.09.
On to “PHGDH (from UniProt O43175 2-533) (enzyme)”, for which the BA log fold change (log fold change) turned out to be 1.11.
As to PPP6R3 (from UniProt Q5H9R7 1-879), the BA log fold change (log fold change) amounted to 1.18.
On the same count and under the same terms, under PSMA3 (from UniProt P25788 2-255) stands 1.09; under PSMC3 (from UniProt P17980 1-439), 1.16; under PSMD2 (from UniProt Q13200 1-908), 0.98.
Still for that read-out and setting: under PSMD11 (from UniProt O00231 1-423) stands 1.02; under PSMD12 (from UniProt O00232 2-456), 1.18.
PSMD14 (from UniProt O00487 1-310): the B.A. logFC worked out at 1.31 logFC and the BA log fold change (log fold change) was 1.31.
The corresponding values for “Proteasome subunit alpha type-1 (from UniProt P25786 1-269)” are 1.2 logFC and 1.2.
On to QIL1 (from UniProt Q5XKP0 1-118), for which the BA log fold change (log fold change) amounted to 1.08.
For “SACM1L (from UniProt Q9NTJ5 1-587) (enzyme)”, the B.A. logFC amounted to 1.26 logFC and the BA log fold change (log fold change) was 1.26.
Turning to SCFD1 (from UniProt Q8WVM8 2-642), the BA log fold change (log fold change) was 1.08.
For the molecule SEC61A1 (from UniProt B4DR61 1-482), the B.A. logFC came to 1.84 logFC and the BA log fold change (log fold change) came to 1.84.
For SEC61A2 (from UniProt Q9H9S3 1-476), the B.A. logFC came to 1.59 logFC and the BA log fold change (log fold change) stood at 1.59.
The corresponding values for SLC25A3 (from UniProt Q00325 50-361) are 1.65 logFC and 1.65.
As to SLC25A22 (from UniProt Q9H936 1-323), the BA log fold change (log fold change) amounted to 1.2.
In the case of “STT3A (from UniProt P46977 1-705) (enzyme)”, the BA log fold change (log fold change) came to 1.27.
Turning to SURF4 (from UniProt O15260 2-269), the B.A. logFC came out at 1.33 logFC and the BA log fold change (log fold change) stood at 1.33.
For the molecule “TECR (from UniProt Q9NZ01 1-308) (enzyme)”, the BA log fold change (log fold change) came to 1.1.
As for TIMM23B (from UniProt Q5SRD1 1-188), the B.A. logFC worked out at 1.22 logFC and the BA log fold change (log fold change) was determined as 1.22.
For TUBA1B (from UniProt P68363 1-451), the BA log fold change (log fold change) stood at 1.05.
The same measure, in the same setting: under TUBA1C (from UniProt F5H5D3 1-519) stands 1.04; under TUBA4A (from UniProt P68366 1-448), 1.02.
Turning to “Transmembrane protein 33 (from UniProt P57088 2-247)”, the B.A. logFC came out at 1.25 logFC and the BA log fold change (log fold change) came to 1.25.
Turning to UBAC2 (from UniProt Q8NBM4 36-344), the B.A. logFC worked out at 1.21 logFC and the BA log fold change (log fold change) worked out at 1.21.
On to VDAC2 (from UniProt P45880 1-309), for which the BA log fold change (log fold change) came out at 1.14.
As to XPO5 (from UniProt Q9HAV4 2-1204), the BA log fold change (log fold change) is 1.14.
Regarding B1, the “BA log fold change” value is 1.43 log fold change.
Take B2: the B.A. logFC is 1.55 logFC and the BA log fold change (log fold change) was 1.55.

A further experiment deals with B1. In words: cell-based or functional assay.
On to B3, for which the “pyruvate influx and efflux rates (pyronic FRET assay, 293T cells)” value is ~0.5 fold of WT SLC16A11.
